Experiments:
[1] = biological target: T1, 6xHis-PA3225 (Pseudomonas aeruginosa UCBPP-PA14) (UniProt A0A0H2ZDR5); assay: EMSA
T1 sequence: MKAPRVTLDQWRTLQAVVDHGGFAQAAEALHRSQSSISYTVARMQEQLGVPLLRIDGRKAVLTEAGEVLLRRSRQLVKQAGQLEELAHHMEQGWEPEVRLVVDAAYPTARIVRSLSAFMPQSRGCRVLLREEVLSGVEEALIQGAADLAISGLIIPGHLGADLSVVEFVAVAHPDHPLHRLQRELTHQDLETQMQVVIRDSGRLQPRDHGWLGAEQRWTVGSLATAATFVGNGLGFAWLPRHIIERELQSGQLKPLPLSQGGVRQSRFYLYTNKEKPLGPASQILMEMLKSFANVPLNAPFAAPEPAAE

[2] = biological target: T1, 6xHis-PA3225 (Pseudomonas aeruginosa UCBPP-PA14); assay: competition

## ATGGCTGGCGTTCGTTGCATAGCGTTGTCCTCATGAGCGAAAGCGGCCGATGCAGCGTGAAGGCGCTGCACCGGCTCGAAGAAGGCAGGCAAAATACTTACATTCATAGGTGTTTGTAAACGTCCGAAAGC (double strand) [Cy5-PmexAB-oprM probe 4]
[1]
  binding: no binding

## ATGGCTGGCGTTCGTTGCATAGCGTTGTCCTCATGAGCGAAAGCGGCCGATGCAGCGTGAAGGCGCTGCACCGGCTCGAAGAAGGCAGGCAAAATACTTACATTCATAGGTGTTTGTAAACGTCCGAAAGC (double strand) [PmexAB-oprM probe 4 unlabeled]
[2]
  binding: no binding

## ATGTGGTTGATCCAGTCAACTATTTTGCTTATTTTAGTTGACCTTATCAACCTTGTTTCAGGTTCTGAATATGGGCCATGGCGCCGGGTGGATAACCGGCCATCGAGCTAAAACGTTTCAGGTGTTTTCACGCGAGGCTTTCGGACGTTTACA (double strand) [Cy5-PmexAB-oprM probe 3]
[1]
  binding: binds

## ATGTGGTTGATCCAGTCAACTATTTTGCTTATTTTAGTTGACCTTATCAACCTTGTTTCAGGTTCTGAATATGGGCCATGGCGCCGGGTGGATAACCGGCCATCGAGCTAAAACGTTTCAGGTGTTTTCACGCGAGGCTTTCGGACGTTTACA (double strand) [PmexAB-oprM probe 3 unlabeled]
[2]
  binding: binds

## TAGTTGACTGGATCAACCACATTTACATTAGGTTTACTCGGCCAAACCAATGAACTACCCCGTGAATCCCGACCTGATGCCCGCGCTGATGGCGGTCTTCCAGCATGTACGGACGCGCATCCAGAGCGAGCTCGATT (double strand) [Cy5-PmexAB-oprM probe 2]
[1]
  binding: no binding

## TAGTTGACTGGATCAACCACATTTACATTAGGTTTACTCGGCCAAACCAATGAACTACCCCGTGAATCCCGACCTGATGCCCGCGCTGATGGCGGTCTTCCAGCATGTACGGACGCGCATCCAGAGCGAGCTCGATT (double strand) [PmexAB-oprM probe 2 unlabeled]
[2]
  binding: no binding
